From US20200317802A1 (Merck KGaA, published 2020)
Substitutions are numbered along the chain they refer to. Blank lines part the entries; values can stand above or below the binder they belong to.

How the values were obtained:
[1] = molecular target: T1, recombinant human ADAMTS5 (R&D Systems cat #2198-AD) (human, UniProt Q9UNA0 262-622, limits assumed); experiment: SPR kinetics, Biacore T100, ADAMTS5 immobilised
T1 construct: bought protein
T1 sequence: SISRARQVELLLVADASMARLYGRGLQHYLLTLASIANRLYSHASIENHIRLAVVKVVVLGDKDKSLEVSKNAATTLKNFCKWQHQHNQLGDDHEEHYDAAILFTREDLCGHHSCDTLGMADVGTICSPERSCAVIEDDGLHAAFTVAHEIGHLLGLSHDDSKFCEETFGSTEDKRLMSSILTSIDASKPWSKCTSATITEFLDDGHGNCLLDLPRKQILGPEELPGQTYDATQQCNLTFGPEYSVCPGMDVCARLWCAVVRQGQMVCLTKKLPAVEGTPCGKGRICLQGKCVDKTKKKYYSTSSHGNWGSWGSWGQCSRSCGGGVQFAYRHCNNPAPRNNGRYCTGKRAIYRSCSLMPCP
Procedure: (§1) For referencing, affinity for human ADAMTS5 was also determined. Thereto, rat and human ADAMTS5 were immobilized onto a CM5 chip via amine coupling, using EDC and NHS chemistry. Purified Nanobodies were injected for 2 minutes at different concentrations (between 1 and 1000 nM) and allowed to dissociate for 25 min at a flow rate of 45 μl/min. The kinetic constants were calculated from the sensorgrams using the BIAEvaluation software (1:1 interaction).

[2] = molecular target: T2, rat recombinant ADAMTS5 (rat, UniProt Q9R001 262-618 (mouse entry)); experiment: SPR kinetics, Biacore T100, ADAMTS5 immobilised
T2 construct: in house, HEK293, His tag in the entry
T2 chain: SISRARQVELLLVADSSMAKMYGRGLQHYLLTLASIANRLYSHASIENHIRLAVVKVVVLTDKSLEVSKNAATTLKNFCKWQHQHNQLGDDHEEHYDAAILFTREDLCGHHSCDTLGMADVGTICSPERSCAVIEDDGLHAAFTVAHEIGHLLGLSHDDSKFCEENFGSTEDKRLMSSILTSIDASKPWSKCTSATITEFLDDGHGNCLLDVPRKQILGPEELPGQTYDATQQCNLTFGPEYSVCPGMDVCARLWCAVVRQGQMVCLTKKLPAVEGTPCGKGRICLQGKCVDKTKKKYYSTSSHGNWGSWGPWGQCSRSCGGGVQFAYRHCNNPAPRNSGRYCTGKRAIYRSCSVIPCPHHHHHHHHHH
Procedure: as §1

[3] = molecular target: T1, recombinant human ADAMTS5 (R&D Systems …); experiment: cell-based or functional assay
[4] = molecular target: T3, cynomolgus monkey recombinant ADAMTS5 (cynomolgus monkey, UniProt Q9UNA0 262-622 (human entry), limits assumed); experiment: cell-based or functional assay
T3 chain: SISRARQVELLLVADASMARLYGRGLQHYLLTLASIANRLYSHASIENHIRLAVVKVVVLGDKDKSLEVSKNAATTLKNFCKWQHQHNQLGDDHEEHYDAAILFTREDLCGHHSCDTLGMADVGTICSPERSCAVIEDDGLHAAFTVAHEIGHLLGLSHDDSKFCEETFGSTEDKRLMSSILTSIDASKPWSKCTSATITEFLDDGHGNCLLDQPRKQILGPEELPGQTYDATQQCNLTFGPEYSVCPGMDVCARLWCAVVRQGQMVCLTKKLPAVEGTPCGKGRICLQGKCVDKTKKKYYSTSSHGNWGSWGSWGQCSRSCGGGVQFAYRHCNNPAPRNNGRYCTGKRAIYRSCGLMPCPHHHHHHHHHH

[5] = molecular target: T4, guinea pig recombinant ADAMTS5 (guinea pig); experiment: cell-based or functional assay
T4 chain: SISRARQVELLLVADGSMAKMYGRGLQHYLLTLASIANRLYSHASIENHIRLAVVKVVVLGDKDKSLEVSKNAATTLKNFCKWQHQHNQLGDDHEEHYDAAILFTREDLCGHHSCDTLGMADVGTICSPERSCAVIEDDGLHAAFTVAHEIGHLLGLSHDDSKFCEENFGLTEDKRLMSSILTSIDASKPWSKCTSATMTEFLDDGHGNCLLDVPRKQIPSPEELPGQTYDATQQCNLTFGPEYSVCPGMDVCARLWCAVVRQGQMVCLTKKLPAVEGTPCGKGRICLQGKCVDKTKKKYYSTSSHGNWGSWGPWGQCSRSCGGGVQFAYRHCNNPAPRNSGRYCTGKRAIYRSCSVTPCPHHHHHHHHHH

[6] = molecular target: T1, recombinant human ADAMTS5 (R&D Systems …); experiment: cell-based or functional assay; remark: listed apart in the source

- Kd [1]: 1.9 nM
- Kd [2]: 1 nM
- AlphaLISA potency IC50, Human [3]: 150 pM
- AlphaLISA potency IC50, Cyno [4]: 190 pM
- AlphaLISA potency IC50, Guinea pig [5]: 530 pM
- FRET assay % inh, periplasmic extract [6]: 104%
- FRET assay vi (U/min), periplasmic extract [6]: -1 U/min
B1: Nanobody 2A12 (VHH)
VHH: EVQLVESGGGLVQAGGSLRLSCAASGRTFSSYAMGWFRQAPGKERDFVAGISRSAGRTYYVDSVKGRFTISRDSAKNTVYLQMNRLKPEDTAVYYCAADLDPNRIFSRDEAAYWGQGTLVTVSS
notes: tagged as tested (anti-Flag detection, IMAC); also called 02A12

- Kd [1]: 1.6 nM
- Kd [2]: 0.7 nM
- AlphaLISA potency IC50, Human [3]: 75 pM
- AlphaLISA potency IC50, Cyno [4]: 81 pM
- AlphaLISA potency IC50, Guinea pig [5]: 300 pM
- FRET assay % inh, periplasmic extract [6]: 103%
- FRET assay vi (U/min), periplasmic extract [6]: -1 U/min
B2: Nanobody 2F03 (VHH)
VHH: B1 VHH with F29V, Q39L, D46E, G56E, V64L, Q82H, D109E, A111Y
notes: tagged as tested (anti-Flag detection, IMAC); also called 02F03; 2F3
